Patent publication US20180273635A1 (Zymeworks, published 2018)
Positions count from the first letter of the chain named. Names and notes keep the numbering of the source.

B1: variant 12526 (antibody, human IgG1, kappa)
heavy: EVQLVESGGGLVQPGGSLRLSCAASGFTFTDYTMDWVRQAPGKGLEWVADVNPNSGMSYYNQRFKGRFTLSVDRSKNTLYLQMNSLRAEDTAVYYCARNLGPSFYFDYWGQGTLVTVSSASTKGPSVFPLAPSSKSTSGGTAALGCLVKDYFPEPVTVSWNSGALTSGVHTFPAVLQSSGLYSLSSVVTVPSSSLGTQTYICNVNHKPSNTKVDKKVEPKSCDKTHTCPPCPAPELLGGPSVFLFPPKPKDTLMISRTPEVTCVVVDVSHEDPEVKFNWYVDGVEVHNAKTKPREEQYNSTYRVVSVLTVLHQDWLNGKEYKCKVSNKALPAPIEKTISKAKGQPREPQVYVYPPSRDELTKNQVSLTCLVKGFYPSDIAVEWESNGQPENNYKTTPPVLDSDGSFALVSKLTVDKSRWQQGNVFSCSVMHEALHNHYTQKSLSLSPG
light: not shown
chain: not shown
notes: also called v12526
B2: variant 12535 (antibody, human IgG1, kappa)
heavy: B1 heavy with M57G, Y59I
light: DIQMTQSPSSLSASVGDRVTITCKASQDVSIGVAWYQQKPGKAPKLLIYSASYRYTGVPSRFSGSGSGTDFTLTISSLQPEDFATYYCQQNYIYPYTFGQGTKVEIKRTVAAPSVFIFPPSDEQLKSGTASVVCLLNNFYPREAKVQWKVDNALQSGNSQESVTEQDSKDSTYSLSSTLTLSKADYEKHKVYACEVTHQGLSSPVTKSFNRGEC
chain: not shown
notes: OA pertuzumab variant, LC Y91N (Kabat); also called v12535
B3: variant 12537 (antibody, human IgG1, kappa)
heavy: B1 heavy with M57G, Y59I
light: not shown
chain: not shown
notes: OA pertuzumab variant, LC Y96M (Kabat); also called v12537
B4: variant 12539 (antibody, human IgG1, kappa)
heavy: B1 heavy with M57G, Y59I
light: B2 light with N91T
chain: not shown
notes: OA pertuzumab variant, LC Y91T (Kabat); also called v12539
B5: variant 12541 (antibody, human IgG1, kappa)
heavy: B1 heavy with M57G, Y59I
light: not shown
chain: not shown
notes: OA pertuzumab variant, LC Y96L (Kabat); also called v12541
B6: variant 12542 (antibody, human IgG1, kappa)
heavy: B1 heavy with M57G, Y59I, F64G
light: not shown
chain: not shown
notes: OA pertuzumab variant, HC F63G (Kabat); also called v12542
B7: variant 12543 (antibody, human IgG1, kappa)
heavy: B1 heavy with M57G, Y59I, F64L
light: not shown
chain: not shown
notes: OA pertuzumab variant, HC F63L (Kabat); also called v12543
B8: variant 12545 (antibody, human IgG1, kappa)
heavy: B1 heavy with M57G, Y59I, Q62R
light: not shown
chain: not shown
notes: OA pertuzumab variant, HC Q61R, LC Y94K (Kabat); also called v12545
B9: variant 12546 (antibody, human IgG1, kappa)
heavy: B1 heavy with M57G, Y59I, Q62R
light: B2 light with D1N, N91Y
chain: not shown
notes: OA pertuzumab variant, HC Q61R, LC D1N (Kabat); also called v12546
B10: variant 14064 (antibody, human IgG1, kappa)
heavy: B1 heavy with M57G, Y59I, K76A
light: not shown
chain: not shown
notes: OA pertuzumab variant, HC K75A (Kabat); also called v14064
B11: variant 14065 (antibody, human IgG1, kappa)
heavy: B1 heavy with M57G, Y59I, K76I
light: not shown
chain: not shown
notes: OA pertuzumab variant, HC K75I (Kabat); also called v14065
B12: variant 14066 (antibody, human IgG1, kappa)
heavy: B1 heavy with M57G, Y59I, K76V
light: not shown
chain: not shown
notes: OA pertuzumab variant, HC K75V (Kabat); also called v14066
B13: variant 14067 (antibody, human IgG1, kappa)
heavy: B1 heavy with M57G, Y59I, K76Y
light: not shown
chain: not shown
notes: OA pertuzumab variant, HC K75Y (Kabat); also called v14067
B14: Variant 14026 (antibody, human IgG1, kappa)
heavy: B1 heavy with M57G, Y59I, K76W, S103W
light: not shown
chain: not shown
notes: OA (one-armed) format; clones 8774, 1811, 4372; also called v14026
B15: Variant 14027 (antibody, human IgG1, kappa)
heavy: B1 heavy with M57G, Y59I, K76W
light: not shown
chain: not shown
notes: OA (one-armed) format; clones 7844, 7917, 4372; also called v14027
B16: Variant 14028 (antibody, human IgG1, kappa)
heavy: B1 heavy with T30Y, M57G, Y59I, K76W
light: not shown
chain: not shown
notes: OA (one-armed) format; clones 8776, 1811, 4372; also called v14028
B17: Variant 14029 (antibody, human IgG1, kappa)
heavy: B1 heavy with M57Y, Y59I, K76W
light: not shown
chain: not shown
notes: OA (one-armed) format; clones 8777, 1811, 4372; also called v14029
B18: Variant 14030 (antibody, human IgG1, kappa)
heavy: B1 heavy with M57G, Y59I, S75W
light: not shown
chain: not shown
notes: OA (one-armed) format; clones 7840, 7919, 4372; also called v14030
B19: Variant 14031 (antibody, human IgG1, kappa)
heavy: B1 heavy with T30Q, M57G, Y59I, S75W
light: not shown
chain: not shown
notes: OA (one-armed) format; clones 8778, 1811, 4372; also called v14031
B20: Variant 14033 (antibody, human IgG1, kappa)
heavy: B1 heavy with M57G, Y59I, S75W, K76E
light: not shown
chain: not shown
notes: OA (one-armed) format; clones 8779, 1811, 4372; also called v14033
B21: Variant 14034 (antibody, human IgG1, kappa)
heavy: B1 heavy with M57G, Y59I
light: not shown
chain: not shown
notes: OA (one-armed) format; clones 3057, 8781, 4372; also called v14034
B22: Variant 14035 (antibody, human IgG1, kappa)
heavy: B1 heavy with T30Q, M57G, Y59I
light: not shown
chain: not shown
notes: OA (one-armed) format; clones 7815, 7917, 4372; also called v14035
B23: Variant 14037 (antibody, human IgG1, kappa)
heavy: B1 heavy with M57G, Y59I, K76E
light: not shown
chain: not shown
notes: OA (one-armed) format; clones 7843, 7919, 4372; also called v14037
B24: Variant 14038 (antibody, human IgG1, kappa)
heavy: B1 heavy with T30Q, M57G, Y59I, K76E
light: not shown
chain: not shown
notes: OA (one-armed) format; clones 8782, 1811, 4372; also called v14038
B25: Variant 14039 (antibody, human IgG1, kappa)
heavy: B1 heavy with T30Y, M57G, Y59I
light: not shown
chain: not shown
notes: OA (one-armed) format; clones 7813, 7919, 4372; also called v14039

These binders were tested against T1, Recombinant human HER2 (human, UniProt P04626 23-652) (assay: SPR, variant captured on anti-human Fc, HER2 flowed, 25 C, pre-SEC;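 further: HER2 extracellular domain binding on Biacore T200, CM5 chip with amine-coupled anti-human Fc, duplicate antigen dilutions, global 1:1 Langmuir fit, measured after protein A purification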).
T1 construct: extracellular domain; analyte of the SPR assays; also called HER2 ECD; ECD2 of HER2

Binder	Kd [nM]
B1	130
B2	23
B3	57
B4	75
B5	63
B6	40
B7	20
B8	81
B9	15
B10	9.7
B11	11
B12	10
B13	0.94

Each binder was assayed against T2, Recombinant human HER2 (human, UniProt P04626 23-652) (assay: SPR, 25 C; Ka ratio to WT v10013;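 further: constructs captured via anti-human Fc on CM5 chip, HER2 ECD as analyte in duplicate dilutions, sensorgrams globally fit to 1:1 Langmuir model on Biacore T200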).
T2 construct: extracellular domain; Analyte of the SPR assays; also called HER2 ECD; ECD2 of HER2

Binder	Ka, mut/Ka, WT [fold]
B14	~57
B15	~164
B16	~67
B17	~81
B18	13
B19	8
B20	10
B21	12
B22	18
B23	12
B24	12
B25	18

The binders below were run against T1, Recombinant human HER2 (assay: SPR, pre-SEC; ratio to WT v10013;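 further: SPR on Biacore T200 at 25 °C, constructs captured via anti-human Fc on CM5 chip, HER2 ECD as analyte, 1:1 Langmuir global fit, after protein A purification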).

Binder	Ka, mut/Ka, WT
B1	0.2
B2	0.8
B3	0.3
B4	0.3
B5	0.3
B6	0.5
B7	1
B8	0.2
B9	1.3
B10	1.7
B11	1.5
B12	1.6
B13	18

These binders were tested against T2, Recombinant human HER2 (assay: calculated from the SPR Ka ratio to WT v10013;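 further: SPR at 25 °C with constructs captured on an anti-human Fc chip and HER2 extracellular domain as analyte, kinetics fitted to a 1:1 Langmuir model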).
Description: (§1) The affinity towards HER2 ECD of the samples was measured by SPR on a Biacore T200 as follows. Between 2000 and 4000 RU of anti-human Fc injected at concentration between 5 and 10 μg/ml was immobilized on a CM5 chip using standard amine coupling. Antigen-binding constructs were captured on the anti-human Fc (injected at concentration at 0.51 microg/mL in PBST, 1 min at 10 microl/min) at response levels ranging from 120-270 RU. […] HER2 dilutions were analyzed in duplicates. Sensograms were fit globally to a 1: 1 Langmuir binding model, using the software provided with the Biacore T200. All experiments were conducted at 25° C.

Binder	ΔΔG [kcal/mol]
B14	-2.4
B15	-3
B16	-2.5
B17	-2.6
B18	-1.5
B19	-1.2
B20	-1.4
B21	-1.4
B22	-1.7
B23	-1.5
B24	-1.5
B25	-1.7

What follows are binders tested against T2, Recombinant human HER2 (assay: SPR, Biacore T200, 25 C; variant captured on anti-human Fc, HER2 flowed;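 further: HER2 extracellular domain analyte run as duplicate dilutions over amine-coupled anti-Fc on a CM5 chip, rates from global sensorgram fitting with a 1:1 Langmuir model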).
Description: as §1

Binder	Kd [nM]	koff [s⁻¹]	kon [M⁻¹ s⁻¹]
B14	~0.29	~2.7e-05	91000
B15	~0.1	~9e-06	88000
B16	~0.25	~1.7e-05	68000
B17	~0.21	~2e-05	95000
B18	1.3	8e-05	63000
B19	2	9.9e-05	49000
B20	1.7	9.9e-05	59000
B21	1.5	8.5e-05	59000
B22	0.91	4e-05	44000
B23	1.4	8.3e-05	59000
B24	1.4	6.2e-05	43000
B25	1.1	5.5e-05	50000
